Results as given in patent publication US20190321401A1 (JUNO THERAPEUTICS, published 2019).

Legend:
Assay in all cases: activation reporter or marker
[1] = target: T1, HPV 16 E7(11-19), single-substitution variant Y1F (synthetic scanning library) peptide on HLA-A*02:01 (human)
T1 peptide: FMLDLQPET

[2] = target: T2, HPV 16 E7(11-19), single-substitution variant E8N (synthetic scanning library) peptide on HLA-A*02:01 (human)
T2 peptide: YMLDLQPNT

[3] = target: T3, HPV 16 E7(11-19), single-substitution variant E8R (synthetic scanning library) peptide on HLA-A*02:01 (human)
T3 peptide: YMLDLQPRT

[4] = target: T4, HPV 16 E7(11-19), single-substitution variant E8G (synthetic scanning library) peptide on HLA-A*02:01 (human)
T4 peptide: YMLDLQPGT

[5] = target: T5, HPV 16 E7(11-19), single-substitution variant T9M (synthetic scanning library) peptide on HLA-A*02:01 (human)
T5 peptide: YMLDLQPEM

[6] = target: T6, HPV 16 E7(11-19), single-substitution variant L5M (synthetic scanning library) peptide on HLA-A*02:01 (human)
T6 peptide: YMLDMQPET

[7] = target: T7, HPV 16 E7(11-19), single-substitution variant T9A (synthetic scanning library) peptide on HLA-A*02:01 (human)
T7 peptide: YMLDLQPEA

[8] = target: T8, HPV 16 E7(11-19), single-substitution variant E8H (synthetic scanning library) peptide on HLA-A*02:01 (human)
T8 peptide: YMLDLQPHT

[9] = target: T9, HPV 16 E7(11-19), single-substitution variant T9C (synthetic scanning library) peptide on HLA-A*02:01 (human)
T9 peptide: YMLDLQPEC

[10] = target: T10, HPV 16 E7(11-19), single-substitution variant Y1H (synthetic scanning library) peptide on HLA-A*02:01 (human)
T10 peptide: HMLDLQPET

[11] = target: T11, HPV 16 E7(11-19), single-substitution variant L3I (synthetic scanning library) peptide on HLA-A*02:01 (human)
T11 peptide: YMIDLQPET

[12] = target: T12, HPV 16 E7(11-19), single-substitution variant M2L (synthetic scanning library) peptide on HLA-A*02:01 (human)
T12 peptide: YLLDLQPET

[13] = target: T13, HPV 16 E7(11-19), single-substitution variant L3V (synthetic scanning library) peptide on HLA-A*02:01 (human)
T13 peptide: YMVDLQPET

[14] = target: T14, HPV 16 E7(11-19), single-substitution variant E8Q (synthetic scanning library) peptide on HLA-A*02:01 (human)
T14 peptide: YMLDLQPQT

[15] = target: T15, HPV 16 E7(11-19), single-substitution variant Y1V (synthetic scanning library) peptide on HLA-A*02:01 (human)
T15 peptide: VMLDLQPET

[16] = target: T16, HPV 16 E7(11-19), single-substitution variant E8P (synthetic scanning library) peptide on HLA-A*02:01 (human)
T16 peptide: YMLDLQPPT

[17] = target: T17, HPV 16 E7(11-19), single-substitution variant L5F (synthetic scanning library) peptide on HLA-A*02:01 (human)
T17 peptide: YMLDFQPET

[18] = target: T18, HPV 16 E7(11-19), single-substitution variant Y1S (synthetic scanning library) peptide on HLA-A*02:01 (human)
T18 peptide: SMLDLQPET

[19] = target: T19, HPV 16 E7(11-19), single-substitution variant E8W (synthetic scanning library) peptide on HLA-A*02:01 (human)
T19 peptide: YMLDLQPWT

[20] = target: T20, HPV 16 E7(11-19), single-substitution variant D4C (synthetic scanning library) peptide on HLA-A*02:01 (human)
T20 peptide: YMLCLQPET

[21] = target: T21, HPV 16 E7(11-19), single-substitution variant Y1W (synthetic scanning library) peptide on HLA-A*02:01 (human)
T21 peptide: WMLDLQPET

[22] = target: T22, HPV 16 E7(11-19), single-substitution variant D4N (synthetic scanning library) peptide on HLA-A*02:01 (human)
T22 peptide: YMLNLQPET

[23] = target: T23, HPV 16 E7(11-19), single-substitution variant E8S (synthetic scanning library) peptide on HLA-A*02:01 (human)
T23 peptide: YMLDLQPST

[24] = target: T24, HPV 16 E7(11-19), single-substitution variant E8V (synthetic scanning library) peptide on HLA-A*02:01 (human)
T24 peptide: YMLDLQPVT

[25] = target: T25, HPV 16 E7(11-19), single-substitution variant L3A (synthetic scanning library) peptide on HLA-A*02:01 (human)
T25 peptide: YMADLQPET

[26] = target: T26, HPV 16 E7(11-19), single-substitution variant E8A (synthetic scanning library) peptide on HLA-A*02:01 (human)
T26 peptide: YMLDLQPAT

[27] = target: T27, HPV 16 E7(11-19), single-substitution variant Y1M (synthetic scanning library) peptide on HLA-A*02:01 (human)
T27 peptide: MMLDLQPET

[28] = target: T28, HPV 16 E7(11-19), single-substitution variant Y1I (synthetic scanning library) peptide on HLA-A*02:01 (human)
T28 peptide: IMLDLQPET

[29] = target: T29, HPV 16 E7(11-19), single-substitution variant E8K (synthetic scanning library) peptide on HLA-A*02:01 (human)
T29 peptide: YMLDLQPKT

[30] = target: T30, HPV 16 E7(11-19), single-substitution variant Y1T (synthetic scanning library) peptide on HLA-A*02:01 (human)
T30 peptide: TMLDLQPET

Measured: binding result

B1: TCR 57 (TCR, V domains shown)
Valpha: TQLLEQSPQFLSIQEGENLTVYCNSSSVFSSLQWYRQEPGEGPVLLVTVVTGGEVKKLKRLTFQFGDARKDSSLHITAAQPGDTGLYLCAGARNFNKFYFGSGTKLNVKP
Vbeta: GAVVSQHPSWVICKSGTSVKIECRSLDFQATTMFWYRQFPKQSLMLMATSNEGSKATYEQGVEKDKFLINHASLTLSTLTVTSAHPEDSSFYICSARSWRGGLEQFFGPGTRLTVL
recognises: [1] | [2] | [3] | [4] | [5] | [6] | [7] | [8] | [9] | [10] | [11] | [12] | [13] | [14] | [15] | [16] | [17] | [18] | [19] | [20] | [21] | [22] | [23] | [24] | [25] | [26] | [27] | [28] | [29] | [30]
